Laboratory results as given in US20090188010A1 (HEXIMA, published 2009).

Target: T1, NaPI-insensitive chymotrypsin from H. punctigera (HpCh5), native enzyme from the larval gut (Helicoverpa punctigera)
T1 construct: also called NaPI-insensitive protease; Rech1a
Assay: affinity column of immobilized recombinant C1, trypsin-depleted gut extract passed through
Method: The midgut was dissected from 80 fourth instar larvae and buffer soluble extracts were prepared. The gut extract was depleted of trypsins by repeated passage through a benzamidine-Sepharose affinity column. […] This column was expected to specifically bind NaPI-sensitive chymotrysins.
The filtered gut extract was passed through the benzamidine column five times to remove the trypsins.

T1 sequence (chain, as listed by the source limits assumed): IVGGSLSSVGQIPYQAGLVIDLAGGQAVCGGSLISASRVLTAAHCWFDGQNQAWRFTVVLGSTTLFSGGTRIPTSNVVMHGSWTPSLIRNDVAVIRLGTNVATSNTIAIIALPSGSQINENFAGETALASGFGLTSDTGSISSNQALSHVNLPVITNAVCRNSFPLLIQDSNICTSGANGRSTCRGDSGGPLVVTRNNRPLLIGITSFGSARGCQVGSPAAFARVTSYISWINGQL

B1: recombinant C1 inhibitor with N-terminal hexahistidine tag, expressed in E. coli (other)
chain: DRICTNCCAGTKGCKYFSDDGTFVCEGESDPRNPKACTLNCDPRIAYGVCPRSEEKKN
notes: also called 6H.C1; not shown: hexahistidine tag at the N-terminus from the pQE-30 vector
Q: Does B1 bind?
A: Result: no binding
